Laboratory results taken from patent US20100260668A1 (published 2010).
Several values for one entry are separate records, joined by “and”; a condition that tells them apart may be missing. Equal values may be shown once.

Key:
DLL4 = target: T1, DLL4 (human, UniProt Q9NR61 27-685); assay: flow cytometry on 293G-human DLL4 cells; DLL4 VD N-terminal
T1 construct: whole, on cells; also called human DLL4

VEGF = target: T2, VEGF (UniProt P15692 27-191, limits assumed); assay: direct bind ELISA, antigen on plate; reference antibody
T2 construct: Bought antigen coated on the ELISA plate; also called vascular endothelial growth factor

VEGF 1-165 aa = target: T3, VEGF 1-165 aa (UniProt P15692 27-191); assay: direct bind ELISA (ref Ab)
T3 construct: Bought antigen coated on the ELISA plate

PlGF = target: T4, PlGF (UniProt P49763-2 21-149, limits assumed); assay: direct bind ELISA, antigen on plate; reference antibody
T4 construct: Bought antigen coated on the ELISA plate; also called Placental GF; placental growth factor
T4 sequence (looked up): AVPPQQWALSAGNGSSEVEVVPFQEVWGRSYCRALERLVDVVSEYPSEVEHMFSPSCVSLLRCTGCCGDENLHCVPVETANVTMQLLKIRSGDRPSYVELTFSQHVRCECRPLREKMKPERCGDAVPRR

ErbB3 on A431 cells [1] = target: T5, ErbB3 on A431 cells (human, UniProt P21860 20-1342); assay: cell-based or functional assay
EGFR on A431 cells [2] = target: T6, EGFR on A431 cells (human, UniProt P00533 25-1210); assay: cell-based or functional assay
ErbB3 on A431 cells [3] = target: T5, ErbB3 on A431 cells; assay: cell-based or functional assay; remark: listed apart in the source
EGFR on A431 cells [4] = target: T6, EGFR on A431 cells; assay: cell-based or functional assay; remark: listed apart in the source
[5] = target: biotin-labeled human IGF1 (human, UniProt P05019 49-118, biotin-labeled); assay: capture ELISA, antibody captured by anti-human Fc, biotin-labeled IGF1
[6] = target: biotin-labeled human IGF2 (human, UniProt P01344 25-91, biotin-labeled); assay: capture ELISA, antibody captured by anti-human Fc, biotin-labeled IGF2
IGF1R ECD = target: T7, IGF1R ECD (UniProt P08069 31-935, limits assumed); assay: Direct Bind ELISA, antigen on plate
T7 construct: extracellular domain; Bought reagent

[7] = target: T8, IGF1R (antigen of the capture ELISA table) (UniProt P08069 31-932, limits assumed); assay: antigen capture ELISA, IGF1R
T8 construct: No IGF1R capture ELISA method is described; also called IGFR

[8] = target: T9, his-tagged, recombinant RON protein (R&D Systems # 1947-MS) (UniProt Q04912 25-957, limits assumed); assay: IgG-Fc capture ELISA, his-tagged RON; N-terminal VD
T9 construct: extracellular domain; also called MSP Receptor ECD-His tag

[9] = target: T10, VEGF (VEGF 1-165 aa, R&D Systems 293-VE-010) (UniProt P15692 27-191); assay: Direct bind ELISA, VEGF coated on plate; VEGF domain N-term., HC long/LC long
T10 construct: bought reagent; also called vascular endothelial growth factor

HGF (HGF-His tag) = target: T11, HGF (HGF-His tag) (UniProt P14210 32-728); assay: Direct Bind ELISA, antigen on plate
T11 construct: Bought reagent

[10] = target: T12, RON (MSP Receptor ECD-His tag) (UniProt Q04912 25-957, limits assumed); assay: Direct Bind ELISA, antigen on plate
T12 construct: extracellular domain; Bought reagent

[11] = target: T9, his-tagged, recombinant RON protein …; assay: IgG-Fc capture ELISA, his-tagged RON

T3 sequence (P15692 other isoform, or with tags, fused parts or gaps limits assumed): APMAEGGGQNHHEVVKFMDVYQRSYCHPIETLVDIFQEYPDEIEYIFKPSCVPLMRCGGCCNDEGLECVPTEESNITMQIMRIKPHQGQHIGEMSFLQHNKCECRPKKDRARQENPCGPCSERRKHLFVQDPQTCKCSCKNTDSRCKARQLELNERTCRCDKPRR
T10 sequence (P15692 other isoform, or with tags, fused parts or gaps limits assumed): as above
T11 sequence (P14210 32-728 limits assumed): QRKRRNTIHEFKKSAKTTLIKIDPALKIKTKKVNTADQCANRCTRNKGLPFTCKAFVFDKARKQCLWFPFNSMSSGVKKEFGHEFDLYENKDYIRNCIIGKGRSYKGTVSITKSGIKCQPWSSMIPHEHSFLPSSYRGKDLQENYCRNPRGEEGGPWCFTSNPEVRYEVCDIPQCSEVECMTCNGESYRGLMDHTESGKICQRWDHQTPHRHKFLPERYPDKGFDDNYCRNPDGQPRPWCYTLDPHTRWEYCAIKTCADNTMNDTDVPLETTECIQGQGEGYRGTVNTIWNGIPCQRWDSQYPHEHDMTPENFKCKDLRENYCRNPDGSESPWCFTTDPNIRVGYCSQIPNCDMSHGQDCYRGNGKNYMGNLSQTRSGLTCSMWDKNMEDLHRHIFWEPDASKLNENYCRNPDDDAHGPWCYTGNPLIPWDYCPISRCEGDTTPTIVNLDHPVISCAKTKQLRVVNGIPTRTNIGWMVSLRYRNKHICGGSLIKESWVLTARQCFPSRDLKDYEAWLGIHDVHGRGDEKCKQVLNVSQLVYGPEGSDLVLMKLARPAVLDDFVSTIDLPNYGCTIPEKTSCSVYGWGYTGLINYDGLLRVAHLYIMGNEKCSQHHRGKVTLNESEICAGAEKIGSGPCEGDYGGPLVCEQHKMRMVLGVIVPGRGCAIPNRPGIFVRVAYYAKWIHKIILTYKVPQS
T2 sequence (P15692 other isoform, or with tags, fused parts or gaps limits assumed): as the sequence (P15692 other isoform, or with tags, fused parts or gaps limits assumed) above

B1: DVD471 (bispecific antibody, human IgG1, kappa, L234A L235A)
heavy: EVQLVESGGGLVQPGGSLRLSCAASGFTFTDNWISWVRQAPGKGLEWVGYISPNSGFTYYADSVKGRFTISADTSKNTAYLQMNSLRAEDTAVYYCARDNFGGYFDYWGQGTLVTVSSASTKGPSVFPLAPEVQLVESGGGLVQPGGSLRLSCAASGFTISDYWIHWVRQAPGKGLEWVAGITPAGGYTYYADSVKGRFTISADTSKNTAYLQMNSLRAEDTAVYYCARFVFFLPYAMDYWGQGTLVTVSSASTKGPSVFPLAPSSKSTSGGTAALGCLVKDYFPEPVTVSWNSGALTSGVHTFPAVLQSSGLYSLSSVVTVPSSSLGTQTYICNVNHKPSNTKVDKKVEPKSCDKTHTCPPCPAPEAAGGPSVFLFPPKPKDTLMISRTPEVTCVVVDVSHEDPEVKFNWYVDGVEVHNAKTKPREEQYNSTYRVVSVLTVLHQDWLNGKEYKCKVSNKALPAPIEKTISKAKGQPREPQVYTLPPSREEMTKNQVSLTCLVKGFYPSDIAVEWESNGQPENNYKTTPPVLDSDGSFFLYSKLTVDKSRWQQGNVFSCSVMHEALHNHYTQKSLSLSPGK
light: DIQMTQSPSSLSASVGDRVTITCRASQDVSTAVAWYQQKPGKAPKLLIYSASFLYSGVPSRFSGSGSGTDFTLTISSLQPEDFATTYYCQQSYTGTVTFGQGTKVEIKRTVAAPSVFIFPPDIQMTQSPSSLSASVGDRVTITCRASQDVSTAVAWYQQKPGKAPKLLIYSASFLYSGVPSRFSGSGSGTDFTLTISSLQPEDFATYYCQQSYTTPPTFGQGTKVEIKRTVAAPSVFIFPPSDEQLKSGTASVVCLLNNFYPREAKVQWKVDNALQSGNSQESVTEQDSKDSTYSLSSTLTLSKADYEKHKVYACEVTHQGLSSPVTKSFNRGEC
notes: DVD-Ig; also called DLL4 and VEGF DVD-Ig, HC linker long, LC linker long
EC50 (DLL4): 1.13 nM

B2: AB071 (antibody, human IgG1, kappa, L234A L235A, V domains shown)
VH: EVQLVESGGGLVQPGGSLRLSCAASGFTINASWIHWVRQAPGKGLEWVGAIYPYSGYTNYADSVKGRFTISADTSKNTAYLQMNSLRAEDTAVYYCARWGHSTSPWAMDYWGQGTLVTVSS
VL: DIQMTQSPSSLSASVGDRVTITCRASQVIRRSLAWYQQKPGKAPKLLIYAASNLASGVPSRFSGSGSGTDFTLTISSLQPEDFATYYCQQSNTSPLTFGQGTKVEIKR
notes: also called AB071VH; AB071VL
EC50 (VEGF): 20.9 nM

B3: AB071 (antibody, human IgG1, kappa, L234A L235A, V domains shown)
VH: EVQLVESGGGLVQPGGSLRLSCAASGFTINASWIHWVRQAPGKGLEWVGAIYPYSGYTNYADSVKGRFTISADTSKNTAYLQMNSLRAEDTAVYYCARWGHSTSPWAMDYWGQGTLVTVSS
VL: DIQMTQSPSSLSASVGDRVTITCRASQVIRRSLAWYQQKPGKAPKLLIYAASNLASGVPSRFSGSGSGTDFTLTISSLQPEDFATYYCQQSNTSPLTFGQGTKVEIKR
notes: Vectors V7/V2
EC50 (VEGF 1-165 aa): 40.4 nM and 80.4 nM and 79.5 nM

B4: AB047 (antibody, human IgG1, kappa, V domains shown)
VH: QVQLQQSGAELVKPGASVKISCKASGYTFTDYYINWVKLAPGQGLEWIGWIYPGSGNTKYNEKFKGKATLTIDTSSSTAYMQLSSLTSEDTAVYFCVRDSPFFDYWGQGTLLTVSS
VL: DIVLTQSPDSLAVSLGERVTMNCKSSQSLLNSGMRKSFLAWYQQKPGQSPKLLIYWASTRESGVPDRFTGSGSGTDFTLTISSVQAEDVAVYYCKQSYHLFTFGSGTKLEIKR
notes: also called AB047VH; AB047VL
EC50 (PlGF): 0.13 nM and 0.14 nM

B5: AB008 (anti-CD-22 antibody, used as control) (antibody, human IgG1, kappa, V domains shown)
VH: QVQLVQSGAEVKKPGSSVKVSCKASGYTFTSYWLHWVRQAPGQGLEWIGYINPRNDYTEYNQNFKDKATITADESTNTAYMELSSLRSEDTAFYFCARRDITTFYWGQGTTVTVSS
VL: DIQLTQSPSSLSASVGDRVTMSCKSSQSVLYSANHKNYLAWYQQKPGKAPKLLIYWASTRESGVPSRFSGSGSGTDFTFTISSLQPEDIATYYCHQYLSSWTFGGGTKLEIKR
Inhibition Of ErbB3 Phosphorylation (% Inhibition At 60 nM Ab/DVD) (ErbB3 on A431 cells [1]): 0%
Inhibition Of EGFR Phosphorylation (% Inhibition At 60 nM Ab/DVD) (EGFR on A431 cells [2]): 4%
Inhibition Of A431 Proliferation (% Inhibition At 21.6 nM Ab/DVD) (ErbB3 on A431 cells [3]): 6%
Inhibition Of A431 Proliferation (% Inhibition At 21.6 nM Ab/DVD) (EGFR on A431 cells [4]): 6%

B6: AB010 (antibody, human IgG1, lambda, V domains shown)
VH: QVQLVQSGAEVKKPGASVKVSCKASGYTFTSYDINWVRQATGQGLEWMGWMNPNSGNTGYAQKFQGRVTMTRNTSISTAYMELSSLRSEDTAVYYCARDPYYYYYGMDVWGQGTTVTVSS
VL: QSVLTQPPSVSAAPGQKVTISCSGSSSNIENNHVSWYQQLPGTAPKLLIYDNNKRPSGIPDRFSGSKSGTSATLGITGLQTGDEADYYCETWDTSLSAGRVFGGGTKLTVLG
notes: also called IGF1,2 parent antibody
EC50 [5]: 4.8 nM
EC50 [6]: 10 nM and 18.1 nM

B7: AB011 (anti-IGF1R (seq. 1) parent antibody) (antibody, IgG1, V domains shown)
VH: EVQLLESGGGLVQPGGSLRLSCTASGFTFSSYAMNWVRQAPGKGLEWVSAISGSGGTTFYADSVKGRFTISRDNSRTTLYLQMNSLRAEDTAVYYCAKDLGWSDSYYYYYGMDVWGQGTTVTVSS
VL: DIQMTQFPSSLSASVGDRVTITCRASQGIRNDLGWYQQKPGKAPKRLIYAASRLHRGVPSRFSGSGSGTEFTLTISSLQPEDFATYYCLQHNSYPCSFGQGTKLEIKR
notes: HC vector V1 (wild-type hIgG1 constant), LC vector V2 (kappa constant); also called AB011VH; AB011VL
EC50 (IGF1R ECD): 0.28 nM

B8: AB011 (antibody, human IgG1, kappa, V domains shown)
VH: EVQLLESGGGLVQPGGSLRLSCTASGFTFSSYAMNWVRQAPGKGLEWVSAISGSGGTTFYADSVKGRFTISRDNSRTTLYLQMNSLRAEDTAVYYCAKDLGWSDSYYYYYGMDVWGQGTTVTVSS
VL: DIQMTQFPSSLSASVGDRVTITCRASQGIRNDLGWYQQKPGKAPKRLIYAASRLHRGVPSRFSGSGSGTEFTLTISSLQPEDFATYYCLQHNSYPCSFGQGTKLEIKR
EC50 [7]: 0.3 nM

B9: DVD033 (bispecific antibody, human IgG1, kappa)
heavy: not shown
light: DVVMTQSPLSLPVTPGEPASISCRSSQSLLHSNGFNYVDWYLQKPGQSPHLLIYFGSYRASGVPDRFSGSGSGTDFTLKISRVEAEDVGVYYCMQALQTPPWTFGQGTKVEIRRTVAAPDIQMTQSPSSVSASVGDRVTITCRASQGISSWLAWYQQKPGKAPNLLIYEASSLQSGVPSRFGGSGSGTDFTLTISSLQPEDFATYYCQQANGFPWTFGQGTKVEIKRTVAAPSVFIFPPSDEQLKSGTASVVCLLNNFYPREAKVQWKVDNALQSGNSQESVTEQDSKDSTYSLSSTLTLSKADYEKHKVYACEVTHQGLSSPVTKSFNRGEC
notes: DVD-Ig; also called RON / HGF DVD-Ig; DVD033H
EC50 [8]: 2.5 nM

B10: DVD496 (bispecific antibody, human IgG1, kappa)
heavy: not shown
light: DIQMTQSPSSLSASVGDRVTITCRASQDVSTAVAWYQQKPGKAPKLLIYSASFLYSGVPSRFSGSGSGTDFTLTISSLQPEDFATYYCQQSYTTPPTFGQGTKVEIKRTVAAPSVFIFPPDIQMTQSSSYLSVSLGGRVTITCKASDHINNWLAWYQQKPGNAPRLLISGATSLETGVPSRFSGSGSGKDYTLSITSLQTEDVATYYCQQYWSIPLTFGAGTKLELKRTVAAPSVFIFPPSDEQLKSGTASVVCLLNNFYPREAKVQWKVDNALQSGNSQESVTEQDSKDSTYSLSSTLTLSKADYEKHKVYACEVTHQGLSSPVTKSFNRGEC
notes: DVD-Ig; N-term; AB070 (VEGF), C-term; AB072 (DLL4); HC linker long, LC linker long; also called DVD-Ig DVD496; DVD496H/DVD496L
EC50 [9]: 108 nM

B11: DVD498 (bispecific antibody, human IgG1, kappa)
heavy: not shown
light: DIQMTQSPSSLSASVGDRVTITCRASQVIRRSLAWYQQKPGKAPKLLIYAASNLASGVPSRFSGSGSGTDFTLTISSLQPEDFATYYCQQSNTSPLTFGQGTKVEIKRTVAAPSVFIFPPDIQMTQSSSYLSVSLGGRVTITCKASDHINNWLAWYQQKPGNAPRLLISGATSLETGVPSRFSGSGSGKDYTLSITSLQTEDVATYYCQQYWSIPLTFGAGTKLELKRTVAAPSVFIFPPSDEQLKSGTASVVCLLNNFYPREAKVQWKVDNALQSGNSQESVTEQDSKDSTYSLSSTLTLSKADYEKHKVYACEVTHQGLSSPVTKSFNRGEC
notes: DVD-Ig; N-term; AB071 (VEGF), C-term; AB072 (DLL4); HC linker long, LC linker long; also called DVD-Ig DVD498; DVD498H/DVD498L
EC50 [9]: 30.6 nM

B12: AB012 (anti-HGF (seq. 1) parent antibody) (antibody, IgG1, V domains shown)
VH: QVQLVESGGGLVKPGGSLRLSCAASGFTFSDYYMSWIRQAPGKGLEWVSYISSSGSTIYYADSVKGRFTISRDNAKNSLYLQMNSLRAEDTAVYYCARDEYNSGWYVLFDYWGQGTLVTVSS
VL: DIQMTQSPSSVSASVGDRVTITCRASQGISSWLAWYQQKPGKAPNLLIYEASSLQSGVPSRFGGSGSGTDFTLTISSLQPEDFATYYCQQANGFPWTFGQGTKVEIKR
notes: HC vector V1 (wild-type hIgG1 constant), LC vector V2 (kappa constant); also called AB012VH; AB012VL
EC50 (HGF (HGF-His tag)): 0.22 nM and 0.19 nM

B13: AB005 (anti-RON (seq. 1) parent antibody) (antibody, IgG1, V domains shown)
VH: EVQLVQSGGGLVKPGGSLRLSCAASGFTFSSYAMHWVRQAPGKGLEWVAVISYDGSNKYYADSVKGRFTISRDNSKNTLYLQMNSLRAEDTAVYYCARFSGWPNNYYYYGMDVWGQGTTVTVSS
VL: DVVMTQSPLSLPVTPGEPASISCRSSQSLLHSNGFNYVDWYLQKPGQSPHLLIYFGSYRASGVPDRFSGSGSGTDFTLKISRVEAEDVGVYYCMQALQTPPWTFGQGTKVEIRR
notes: HC vector V1 (wild-type hIgG1 constant), LC vector V2 (kappa constant); also called AB005VH; AB005VL
EC50 [10]: 0.26 nM and 0.21 nM

B14: AB005 (antibody, human IgG1, kappa, V domains shown)
VH: EVQLVQSGGGLVKPGGSLRLSCAASGFTFSSYAMHWVRQAPGKGLEWVAVISYDGSNKYYADSVKGRFTISRDNSKNTLYLQMNSLRAEDTAVYYCARFSGWPNNYYYYGMDVWGQGTTVTVSS
VL: DVVMTQSPLSLPVTPGEPASISCRSSQSLLHSNGFNYVDWYLQKPGQSPHLLIYFGSYRASGVPDRFSGSGSGTDFTLKISRVEAEDVGVYYCMQALQTPPWTFGQGTKVEIRR
EC50 [11]: 1.6 nM and 0.7 nM and 1.3 nM
